Target: VISTA-Fc human recombinant protein (human), Q9H7M9
Experiment: synchrotron radiation circular dichroism (SRCD) titration; fixed concentration of VISTA-Fc (or human Ig-Fc) and increasing concentrations of galectin-9, in solution; 23°C
Settings: remark: other sources report otherwise

B1: human recombinant galectin-9, O00182 1-355 (ligand)
chain: MAFSGSQAPYLSPAVPFSGTIQGGLQDGLQITVNGTVLSSSGTRFAVNFQTGFSGNDIAFHFNPRFEDGGYVVCNTRQNGSWGPEERKTHMPFQKGMPFDLCFLVQSSDFKVMVNGILFVQYFHRVPFHRVDTISVNGSVQLSYISFQNPRTVPVQPAFSTVPFSQPVCFPPRPRGRRQKPPGVWPANPAPITQTVIHTVQSAPGQMFSTPAIPPMMYPHPAYPMPFITTILGGLYPSKSILLSGTVLPSAQRFHINLCSGNHIAFHLNPRFDENAVVRNTQIDNSWGSEERSLPRKMPFVRGQSFSVWILCEAHCLKVAVDGQHLFEYYHRLRNLPTINRLEVGGDIQLTHVQT
Kd: 18 nM

Source: article PMC7715031
